In US20220056133A1:

Assays:
[1] = target: TRBV9 family TCR on human peripheral blood T lymphocytes (human)
[2] = target: TRBV9 family TCR on human peripheral blood T lymphocytes (human); test: cell-based or functional assay
[3] = target: human antigen (immobilised on AR2G sensors in the Octet assay of Example 2) (human); test: BLI (OctetRed 96), antigen immobilised on AR2G sensors, antibody in solution, 1:1 global model, 30 C
[4] = target: TRBV9 family TCR on human peripheral blood T lymphocytes (human); test: FACS sorting with MA-042-FITC, then sequencing of the TCR beta-chain repertoire of the sorted cells
[5] = target: TRBV9 family TCR on human peripheral blood T lymphocytes (human); test: flow cytometry sorting of human peripheral blood mononuclear cells stained with MA-042-FITC, CD3-eFluor405 and CD45-PC5 at 100 ng/ml; dot plot of MA-042 against CD3

B1: antibody MA-042 (antibody, human IgG1, kappa, V domains shown)
VH: QVQLVQSGSELKKPGESVKVSCKASGYTFTDYLVHWVRQAPGQGLEWMGWINTYTGTPTYADDFEGRFVFSLDTSVSTANLQISSLKAEDTAVYFCARSWRRGLRGIGFDYWGQGTLVTVSS
VL: DIQMTQSPYSLSASVGDRVTITCKASKSINKYLAWFQQKPGKPNKLLIYDGSTLQSGVPSRFSGSGSGTDFTLTISSLEPEDFATYYCQQHNEYPPTFGQGTKLEIKR
B1 showed a share of CD3+ cells in the TRBV9+ (MA-042-FITC positive) gate after the cytotoxicity assay with 1 ng/ml MA-042 (right panel) [1] of 2%, a share of CD3+ cells in the TRBV9+ (MA-042-FITC positive) gate after the cytotoxicity assay with 1 ug/ml MA-042 (left panel) [1] of 0.3% and an EC50 in a cytotoxicity assay (elimination of TRBV9-positive cells among CD3+ lymphocytes, flow cytometry after 72 hours) [2] of 0.1 µg/mL. The antibody concentration at which complete elimination of the target population was detected [2] was 500 ng/mL, the Kd [3] was under 1 pM and the koff [3] was under 1e-07 s⁻¹. For the same binder, the kon [3] was 319000 M⁻¹ s⁻¹, the enrichment of the sorted fraction's TCR beta-chain libraries with TRBV9-encoded sequences [4] was 93% and the MA-042+ (share of cells in the MA-042+ gate) [5] was 1.9%.
